From publication doi:10.1101/2023.05.09.538545v2

What was measured:
Test in all cases: purified protein
Type in all cases: biochemical, Escherichia coli
Conditions in all cases: 0.05 M phosphate buffer, pH 7.0, 35 °C
purified protein [1] = substrate: CCCCCCCCCC(=O)N[C@H]1CCOC1=O
purified protein [2] = substrate: CCCCCC(=O)CC(=O)N[C@H]1CCOC1=O
purified protein [3] = substrate: CCCCCCCCCC(=O)CC(=O)N[C@H]1CCOC1=O
purified protein [4] = substrate: CCCC(=O)CC(=O)N[C@H]1CCOC1=O

B1: ecPGA (Escherichia coli penicillin G acylase) (Escherichia coli) (protein)
chain 1: EQSSSEIKIVRDEYGMPHIYANDTWHLFYGYGYVVAQDRLFQMEMARRSTQGTVAEVLGKDFVKFDKDIRRNYWPDAIRAQIAALSPEDMSILQGYADGMNAWIDKVNTNPETLLPKQFNTFGFTPKRWEPFDVAMIFVGTMANRFSDSTSEIDNLALLTALKDKYGVSQGMAVFNQLKWLVNPSAPTTIAVQESNYPLKFNQQNSQTA
chain 2: SNMWVIGKSKAQDAKAIMVNGPQFGWYAPAYTYGIGLHGAGYDVTGNTPFAYPGLVFGHNGVISWGSTAGFGDDVDIFAERLSAEKPGYYLHNGKWVKMLSREETITVKNGQAETFTVWRTVHGNILQTDQTTQTAYAKSRAWDGKEVASLLAWTHQMKAKNWQEWTQQAAKQALTINWYYADVNGNIGYVHTGAYPDRQSGHDPRLPVPGTGKWDWKGLLPFEMNPKVYNPQSGYIANWNNSPQKDYPASDLFAFLWGGADRVTEIDRLLEQKPRLTADQAWDVIRQTSRQDLNLRLFLPTLQAATSGLTQSDPRRQLVETLTRWDGINLLNDDGKTWQQPGSAILNVWLTSMLKRTVVAAVPMPFDKWYSASGYETTQDGPTGSLNISVGAKILYEAVQGDKSPIPQAVDLFAGKPQQEVVLAALEDTWETLSKRYGNNVSNWKTPAMALTFRANNFFGVPQAAAEETRHQAEYQNRGTENDMIVFSPTTSDRPVLAWDVVAPGQSGFIAPDGTVDKHYEDQLKMYENFGRKSLWLTKQDVEAHKESQEVLHVQR
Km (purified protein [1]): 2980 ± 200 µM
kcat (purified protein [1]): 0.0045 ± 0.0004 s⁻¹
Km (purified protein [2]): 880 ± 40 µM
kcat (purified protein [2]): 0.0077 ± 0.0004 s⁻¹
Km (purified protein [3]): 2500 ± 100 µM
kcat (purified protein [3]): 0.0043 ± 0.0002 s⁻¹
Km (purified protein [4]): 510 ± 30 µM
kcat (purified protein [4]): 0.0100 ± 0.0002 s⁻¹
